Data from IntAct's records for PubMed 23825108.

Target: mmac_human MMACHC (UniProt Q9Y4U1)
Sequence (Q9Y4U1 whole entry): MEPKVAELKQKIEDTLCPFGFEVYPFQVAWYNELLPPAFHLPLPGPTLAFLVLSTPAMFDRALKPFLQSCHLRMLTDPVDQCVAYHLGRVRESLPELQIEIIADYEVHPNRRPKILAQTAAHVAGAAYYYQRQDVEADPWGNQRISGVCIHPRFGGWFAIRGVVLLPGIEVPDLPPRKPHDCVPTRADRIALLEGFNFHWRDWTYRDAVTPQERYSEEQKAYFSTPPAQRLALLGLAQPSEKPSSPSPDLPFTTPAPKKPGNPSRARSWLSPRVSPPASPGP

Chain of Methionine synthase (Homo sapiens), Q99707 P1173L (Q99707 whole entry P1173L): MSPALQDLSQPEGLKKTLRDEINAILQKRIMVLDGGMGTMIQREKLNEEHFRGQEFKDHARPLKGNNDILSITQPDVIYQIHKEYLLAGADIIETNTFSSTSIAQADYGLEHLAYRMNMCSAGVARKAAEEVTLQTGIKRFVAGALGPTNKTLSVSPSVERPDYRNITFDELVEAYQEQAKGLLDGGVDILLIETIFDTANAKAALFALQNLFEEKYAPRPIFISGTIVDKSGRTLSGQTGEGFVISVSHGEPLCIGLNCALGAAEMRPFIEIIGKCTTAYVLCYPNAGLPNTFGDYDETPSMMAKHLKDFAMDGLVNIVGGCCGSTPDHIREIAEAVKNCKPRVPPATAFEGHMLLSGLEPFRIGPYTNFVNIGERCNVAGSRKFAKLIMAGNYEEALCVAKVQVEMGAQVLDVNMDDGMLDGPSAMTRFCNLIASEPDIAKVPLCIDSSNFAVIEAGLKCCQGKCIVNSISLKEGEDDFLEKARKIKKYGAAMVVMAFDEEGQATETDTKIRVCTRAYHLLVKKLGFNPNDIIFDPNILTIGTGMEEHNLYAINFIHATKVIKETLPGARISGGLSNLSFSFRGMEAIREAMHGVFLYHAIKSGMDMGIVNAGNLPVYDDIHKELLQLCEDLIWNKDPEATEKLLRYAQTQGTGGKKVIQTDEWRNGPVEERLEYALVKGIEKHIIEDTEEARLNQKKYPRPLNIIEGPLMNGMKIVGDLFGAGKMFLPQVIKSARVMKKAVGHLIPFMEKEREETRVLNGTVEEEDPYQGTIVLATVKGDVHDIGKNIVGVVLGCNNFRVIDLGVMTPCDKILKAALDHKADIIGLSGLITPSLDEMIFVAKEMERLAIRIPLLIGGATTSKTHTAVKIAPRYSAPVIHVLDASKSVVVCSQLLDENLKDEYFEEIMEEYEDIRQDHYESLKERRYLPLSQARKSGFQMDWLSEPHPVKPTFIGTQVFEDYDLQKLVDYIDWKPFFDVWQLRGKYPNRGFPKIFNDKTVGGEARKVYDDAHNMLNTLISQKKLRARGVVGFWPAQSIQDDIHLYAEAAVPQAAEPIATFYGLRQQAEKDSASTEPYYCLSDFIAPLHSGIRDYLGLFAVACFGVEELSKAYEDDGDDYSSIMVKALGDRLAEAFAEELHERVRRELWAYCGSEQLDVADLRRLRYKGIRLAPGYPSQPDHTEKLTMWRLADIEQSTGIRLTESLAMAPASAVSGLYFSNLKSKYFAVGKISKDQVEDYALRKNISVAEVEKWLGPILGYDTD

Methionine synthase (Homo sapiens), Q99707 P1173L
effect of a mutation on the interaction: increasing interaction strength
